Source: patent publication US9358302

Target: GBSIII-OVAp (GBSIII conjugated to OVAp19)
Assay: cell-based or functional assay

For “T-cell receptor of DO11.10 transgenic mice that recognizes OVA peptide 323-339 in the context of MHC class II (I-A^d) (TCR)”, the T cell proliferation, stimulation index (SI), 10 µg GBSIII-OVAp was 53.6 SI and the fold decrease in T cell proliferation against OVAp of the same amount was 60 fold.
